{"source": "patent US20070244048A1", "about": "(published 2007)", "binders": {"B1": {"name": "human NMU-25 (peptide)", "peptide": "FRVDEEFQSPFASQSRGYFLFRPRN-NH2", "notes": "also called hNMU-25; native hNMU"}}, "key": {"human NMUR1": {"biological_target": "T1, human NMUR1 (human, UniProt Q9HB89 1-426)", "T1 sequence (looked up)": "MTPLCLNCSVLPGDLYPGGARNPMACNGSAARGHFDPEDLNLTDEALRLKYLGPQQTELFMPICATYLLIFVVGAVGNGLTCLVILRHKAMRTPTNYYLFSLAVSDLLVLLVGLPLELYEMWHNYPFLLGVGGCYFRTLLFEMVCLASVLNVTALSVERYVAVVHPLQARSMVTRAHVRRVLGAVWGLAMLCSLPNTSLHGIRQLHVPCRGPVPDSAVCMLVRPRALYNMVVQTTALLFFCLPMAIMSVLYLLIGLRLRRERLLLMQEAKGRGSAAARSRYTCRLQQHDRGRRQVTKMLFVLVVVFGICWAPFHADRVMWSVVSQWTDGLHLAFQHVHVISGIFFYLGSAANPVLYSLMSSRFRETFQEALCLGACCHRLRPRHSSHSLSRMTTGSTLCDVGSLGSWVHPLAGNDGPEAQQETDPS", "experiment": "cell-based or functional assay"}, "human NMUR2": {"biological_target": "human NMUR2 (human, UniProt Q9GZQ4 1-415)", "sequence (Q9GZQ4 whole entry)": "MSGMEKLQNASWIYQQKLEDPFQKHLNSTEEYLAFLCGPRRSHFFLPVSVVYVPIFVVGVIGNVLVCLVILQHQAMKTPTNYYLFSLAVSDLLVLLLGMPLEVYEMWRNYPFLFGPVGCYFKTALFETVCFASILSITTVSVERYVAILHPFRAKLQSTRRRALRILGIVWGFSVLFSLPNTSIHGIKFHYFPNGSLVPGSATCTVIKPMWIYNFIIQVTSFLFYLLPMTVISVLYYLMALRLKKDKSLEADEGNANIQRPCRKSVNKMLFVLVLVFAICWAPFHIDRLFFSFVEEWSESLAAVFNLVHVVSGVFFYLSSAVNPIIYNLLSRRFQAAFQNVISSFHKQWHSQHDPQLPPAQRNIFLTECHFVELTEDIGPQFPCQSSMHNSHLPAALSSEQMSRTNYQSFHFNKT", "experiment": "cell-based or functional assay"}}, "note": "No end group written: not given here.", "data": [{"binder": "B1", "values": [{"measurement": "% activity", "setting": "human NMUR1", "value": 100, "unit": "%"}, {"measurement": "EC50", "setting": "human NMUR1", "value": 5.5, "unit": "nM"}, {"measurement": "% activity", "setting": "human NMUR2", "value": 100, "unit": "%"}, {"measurement": "EC50", "setting": "human NMUR2", "value": 1.5, "unit": "nM"}]}]}
